Experiments:
[1] = target: recombinant human desmoglein 2 (DSG2) (human) (UniProt Q14126); assay: SPR; DSG2 amine-coupled on a CM5 chip (3,500-3,700 RU), knobs as analytes; 25°C; HBS-EP (10 mM HEPES, 150 mM NaCl, 3 mM EDTA, 0.05% Tween 20, pH 7.4); association 180 s, dissociation 540 s, 30 µL/min; Biacore 8K
[2] = target: Recombinant fiber knob of HAdV-7 (human adenovirus type 7) (UniProt P15141); assay: SDS-PAGE of unboiled (native) against boiled samples; purified knobs in loading buffer kept on ice (native) or heated at 98°C for 5 min (boiled); 12% SDS-PAGE
[3] = target: Recombinant fiber knob of HAdV-55 (human adenovirus type 55); assay: as above
[4] = target: the molecule itself; assay: as above
[5] = target: T1, recombinant human desmoglein 2 (DSG2) (human, UniProt Q14126 50-609); assay: SPR; DSG2 amine-coupled on a CM5 chip (3,500-3,700 RU), knobs as analytes; 25°C; HBS-EP (10 mM HEPES, 150 mM NaCl, 3 mM EDTA, 0.05% Tween 20, pH 7.4); association 180 s, dissociation 540 s, 30 µL/min; Biacore 8K; conditions: both partners purified
T1 construct: desmoglein 2, human, recombinant; No catalogue number, limits or tags are printed for the bought protein; The source is named for the SPR; the ELISA says only 'human DSG2'; also called human DSG2; receptor DSG2; source: bought: Creative Biomart
T1 sequence: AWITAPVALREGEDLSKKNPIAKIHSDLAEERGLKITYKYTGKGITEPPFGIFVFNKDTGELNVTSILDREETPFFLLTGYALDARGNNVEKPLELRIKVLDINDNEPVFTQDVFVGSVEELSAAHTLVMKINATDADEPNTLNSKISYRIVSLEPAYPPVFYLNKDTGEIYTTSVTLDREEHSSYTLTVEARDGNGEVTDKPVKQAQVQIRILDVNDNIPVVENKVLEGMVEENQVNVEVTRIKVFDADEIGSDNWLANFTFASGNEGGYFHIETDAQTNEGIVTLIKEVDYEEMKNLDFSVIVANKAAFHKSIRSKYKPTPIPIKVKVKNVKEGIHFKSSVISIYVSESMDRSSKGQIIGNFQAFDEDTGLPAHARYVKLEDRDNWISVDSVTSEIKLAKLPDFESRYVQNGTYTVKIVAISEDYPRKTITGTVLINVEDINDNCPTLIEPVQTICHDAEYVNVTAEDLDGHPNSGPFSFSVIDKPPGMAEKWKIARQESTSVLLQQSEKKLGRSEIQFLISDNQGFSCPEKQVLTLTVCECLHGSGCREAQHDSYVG

Recombinant fiber knob of HAdV-7 (from UniProt P15141 1-343) (domain or fragment)
Kd [1]: 2.21 nM | stoichiometry N [2]: 3

Recombinant fiber knob of HAdV-55 (domain or fragment)
Kd [1]: 1.25 nM | stoichiometry N [3]: 3

B1: Recombinant fiber knob of HAdV-5 (domain or fragment)
chain: GAITVGNKNNDKLTLWTTPAPSPNCRLNAEKDAKLTLVLTKCGSQILATVSVLAVKGSLAPISGTVQSAHLIIRFDENGVLLNNSFLDPEYWNFRNGDLTEGTAYTNAVGFMPNLSAYPKSHGKTAKSNIVSQVYLNGDKTKPVTLTITLNGTQETGDTTPSAYSMSFSWDWSGHNYINEIFATSSYTFSYIAQE
notes: fiber protein of human adenovirus type 5, fiber knob with the last shaft repeat; Negative control knob; also called Ad5K; Ad5k; not shown: His tag, N-terminal, kept
stoichiometry N [4]: 3

B2: Recombinant fiber knob of HAdV-3 (domain or fragment)
chain: KLGNGLTFDSSNSIALKNNTLWTGPKPEANCIIEYGKQNPDSKLTLILVKNGGIVNGYVTLMGASDYVNTLFKNKNVSINVELYFDATGHILPDSSSLKTDLELKYKQTADFSARGFMPSTTAYPFVLPNAGTHNENYIFGQCYYKASDGALFPLEVTVMLNKRLPDSRTSYVMTFLWSLNAGLAPETTQATLITSPFTFSYIREDD
notes: fiber protein of human adenovirus type 3, fiber knob with the last shaft repeat; also called Ad3K; Ad3k; not shown: His tag, N-terminal, kept
Kd [5]: 6.7 nM
